Data on 2 compounds can be found in paper PMC6533321 (EJNMMI Research, 2019).

The test system of data set [1] is patient with a well-differentiated NET. The data set is described as follows: PET/CT in a patient with well-differentiated NET. Conditions: human, in vivo. The procedure:
Despite octreotide therapy, the disease was progressing, and in 2015, the patient was treated with peptide receptor radionuclide therapy (PRRT), administering 5 GBq of [^90Y]Y-DOTA-TOC. […] Written informed consent was obtained from the patient in accordance with paragraph 37 of the updated Declaration of Helsinki, ‘Unproven Interventions in Clinical Practice’, and in accordance with the German Medical Products Act AMG §13 2b.

For the next data set, the system named is normal liver. Conditions: in vivo; cited from earlier work.
A short description of data set [2]: Ex vivo biodistribution 60 min p.i. To be noted: female, NMRI-nude, mouse, in vivo, iv, total radioactivity. The procedure:
(§1) A number of 2 × 10^6 MPC-mCherry cells were transplanted subcutaneously into the right shoulder of female NMRI-nude mice (8 to 10 weeks old, RjOrl:NMRI-Foxn1^nu /Foxn1^nu, Janvier Labs). […] Animals were sacrificed at 60 min post-injection (p.i.). […] The activity of the tissue samples was decay-corrected and calibrated by comparing the counts in tissue with the counts in aliquots of the injected radiotracer that had been measured in the γ-counter at the same time. The activity in the selected organs was expressed as percent-injected activity per organ (%IA) and the activity concentration in tissues and organs as standardised uptake value (SUV in [MBq activity/g tissue]/[MBq injected activity/g body weight]). Values are quoted as mean ± standard deviation for each group of animals.

Data set [3] has as its system MPC-mCherry tumour-bearing NMRI-nude mice. The experiment in a line: Ex vivo biodistribution 60 min p.i. Conditions: female, mouse, in vivo, iv, 1 h. The procedure: as §1
Another data set deals with hSST5 (Homo sapiens, UniProt P35346). The data set is described as follows: Competition binding against [^125I-Tyr^25]LTT-SS28 in HEK293-hSST5 cell membranes. To be noted: mean ± sd, read-out: IC50 (displacement of [^125I-Tyr^25]LTT-SS28). The procedure:
(§2) The HEK293 cell line was transfected to stably express each of the hSST2/3/5 and the resultant HEK293-hSST2/3/5 cells used for receptor affinity assessments were donated by Prof. S. Schultz (Institute of Pharmacology and Toxicology, University Hospital, Friedrich Schiller University Jena, Germany). Cells were cultured at 37 °C and 5% CO2 in Dulbecco’s modified Eagle’s medium containing 10% fetal bovine serum, 100 U/mL penicillin, […] G418, as previously described. Culture reagents were from Gibco BRL, Life Technologies, and Biochrom KG Seromed.
(§3) [^125I-Tyr^25]LTT-SS28 served as radioligand and LTT-SS28 ([Leu^8,DTrp^22,Tyr^25]SS28) as reference compound [28, 30, 32]. Briefly, radioligand (70 μL, 50 pM corresponding to ≈ 40,000 cpm), test peptide (30 μL solution of increasing concentrations, 10^− 5–10^− 13 M), and membrane homogenates (200 μL) were added to each assay tube (total volume of 300 μL in binding solution: 50 mM HEPES pH 7.4, 1% BSA, 5.5 mM MgCl2, 35 μM bacitracin) in triplicates for each concentration point. Samples were incubated for 60 min at 22 °C in an Incubator-Orbital Shaker unit (MPM Instr. SrI). […]

Another data set addresses T1, hSST2 (Homo sapiens, UniProt P30874).
T1 construct: expressed in transfected cells; donated by Prof; S. Schultz, Jena
The data set is described as follows: Competition binding against [^125I-Tyr^25]LTT-SS28 in HEK293-hSST2 cell membranes. To be noted: mean ± sd, read-out: IC50 (displacement of [^125I-Tyr^25]LTT-SS28). The procedure: as §2, §3

For the next data set, the target named is T2, hSST3 (Homo sapiens, UniProt P32745).
T2 construct: expressed in transfected cells; donated by Prof; S. Schultz, Jena
The data set is described as follows: Competition binding against [^125I-Tyr^25]LTT-SS28 in HEK293-hSST3 cell membranes. Conditions: mean ± sd, read-out: IC50 (displacement of [^125I-Tyr^25]LTT-SS28). The procedure: as §2
[^125I-Tyr^25]LTT-SS28 served as radioligand and LTT-SS28 ([Leu^8,DTrp^22,Tyr^25]SS28) as reference compound [28, 30, 32]. Briefly, radioligand (70 μL, 50 pM corresponding to ≈ 40,000 cpm), test peptide (30 μL solution of increasing concentrations, 10^− 5–10^− 13 M), and membrane homogenates (200 μL) were added to each assay tube (total volume of 300 μL in binding solution: 50 mM HEPES pH 7.4, 1% BSA, 5.5 mM MgCl2, 35 μM bacitracin) in triplicates for each concentration point. Samples were incubated for 60 min at 22 °C in an Incubator-Orbital Shaker unit (MPM Instr. SrI). […] Filters were collected, and their activity measured in a γ-counter (automated well-type multisample gamma counter; NaI(Tl) 3″ crystal, Canberra Packard Auto-Gamma 5000 series instrument).

The structures appear in SMILES notation. Residues, ends and D or L forms follow the SMILES beside them.

Chain of hSST5 (P35346 whole entry): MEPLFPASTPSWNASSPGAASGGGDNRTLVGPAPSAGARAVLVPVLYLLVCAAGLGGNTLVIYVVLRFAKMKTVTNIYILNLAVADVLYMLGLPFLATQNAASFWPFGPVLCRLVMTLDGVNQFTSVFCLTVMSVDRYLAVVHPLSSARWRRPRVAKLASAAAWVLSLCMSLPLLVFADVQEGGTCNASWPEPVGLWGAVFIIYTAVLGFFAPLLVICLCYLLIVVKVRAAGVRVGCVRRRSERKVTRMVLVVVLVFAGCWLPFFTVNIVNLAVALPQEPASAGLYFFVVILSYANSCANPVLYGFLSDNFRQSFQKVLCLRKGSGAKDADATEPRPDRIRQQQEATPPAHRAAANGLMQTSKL
T1 sequence (P30874 whole entry): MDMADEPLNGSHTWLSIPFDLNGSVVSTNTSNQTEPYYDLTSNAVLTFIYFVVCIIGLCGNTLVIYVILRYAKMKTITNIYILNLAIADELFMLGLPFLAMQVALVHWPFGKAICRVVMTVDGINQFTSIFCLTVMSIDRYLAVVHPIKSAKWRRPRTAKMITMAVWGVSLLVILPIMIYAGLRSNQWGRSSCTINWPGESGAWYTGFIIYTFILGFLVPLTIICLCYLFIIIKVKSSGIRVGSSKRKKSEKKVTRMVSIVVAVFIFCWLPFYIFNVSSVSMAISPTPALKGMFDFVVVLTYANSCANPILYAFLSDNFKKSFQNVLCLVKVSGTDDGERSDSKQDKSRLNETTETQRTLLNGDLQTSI
T2 sequence (P32745 whole entry): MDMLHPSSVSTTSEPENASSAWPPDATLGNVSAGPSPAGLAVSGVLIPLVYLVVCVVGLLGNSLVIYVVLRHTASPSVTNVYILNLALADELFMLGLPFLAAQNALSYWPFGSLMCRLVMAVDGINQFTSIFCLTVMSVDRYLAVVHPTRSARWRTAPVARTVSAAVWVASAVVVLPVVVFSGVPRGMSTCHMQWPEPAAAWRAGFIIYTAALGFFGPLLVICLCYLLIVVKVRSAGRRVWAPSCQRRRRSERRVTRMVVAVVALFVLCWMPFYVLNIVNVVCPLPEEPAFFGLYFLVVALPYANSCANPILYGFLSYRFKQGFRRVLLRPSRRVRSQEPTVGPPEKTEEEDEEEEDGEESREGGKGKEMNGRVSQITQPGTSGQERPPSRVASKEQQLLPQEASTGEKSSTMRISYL

As to `C[C@@H](O)[C@@H]1NC(=O)[C@H](CCCCN)NC(=O)[C@@H](Cc2c[nH]c3ccccc23)NC(=O)[C@H](Cc2ccc(O)cc2)NC(=O)[C@@H](NC(=O)[C@@H](Cc2ccccc2)NC(=O)CN2CCN(CC(=O)O)CCN(CC(=O)O)CCN(CC(=O)O)CC2)CSSC[C@@H](C(=O)N[C@H](CO)[C@@H](C)O)NC1=O` [[^68Ga]Ga-DOTA-TOC, metal not drawn], in data set [1], the “SUV, blood” value is 2.0 SUV. The “SUV, liver” value in data set [1] was determined as 23.1 SUV. Also, in data set [1], the “SUV, pituitary” value is listed as 23.7 SUV. In addition, the “SUV, target lesion” value in data set [1] was determined as 71.1 SUV. Further, the “SUVmax of the liver, previous value reported” value in the data set with normal liver was 12.8 ± 3.6. Besides, the SUV at 1 h in data set [2] (Blood radioactivity concentration) turned out to be 0.06 ± 0.01 SUV. For the same compound, the tissue uptake dose at 1 h in data set [2] (Brain uptake) came out at 0.02 ± 0.01 %ID; in data set [2] (Femur uptake) it was 0.04 ± 0.04 %ID; in data set [2] (Kidneys uptake) it was 3.34 ± 0.87 %ID; in data set [2] (Liver uptake), 0.45 ± 0.09 %ID; in data set [2] (Lung uptake), 0.12 ± 0.01 %ID; in data set [2] (Ovaries uptake), 0.02 ± 0.01 %ID. Further, the tissue uptake dose at 1 h was found to be 0.42 ± 0.06 %ID in data set [2] (Pancreas uptake), 1.34 ± 0.39 %ID in data set [2] (Stomach uptake) and 0.01 %ID in data set [2] (Thyroid uptake). In addition, the dose excreted at 1 h in data set [2] (Urine calc.) was 83.3 ± 3.73%. In data set [3], this compound showed an Intestine uptake of 2.11±1.33 %IA. The Tumour radioactivity concentration in data set [3] was 4.52 ± 1.96 SUV. For the same compound, in data set [3], the Tumour uptake was 2.40±1.94 %IA.

On to `CC(C)C[C@H](NC(=O)[C@H](C)NC(=O)[C@@H]1CCCN1C(=O)[C@H](CC(N)=O)NC(=O)[C@H](CO)NC(=O)[C@H](CC(N)=O)NC(=O)[C@H](C)NC(=O)[C@@H](N)CO)C(=O)N[C@@H](C)C(=O)N1CCC[C@H]1C(=O)N[C@@H](CCCN=C(N)N)C(=O)N[C@@H](CCC(=O)O)C(=O)N[C@@H](CCCN=C(N)N)C(=O)N[C@@H](CCCCN)C(=O)N[C@@H](C)C(=O)NCC(=O)N[C@H]1CSSC[C@@H](C(=O)O)NC(=O)[C@H](CO)NC(=O)[C@H]([C@@H](C)O)NC(=O)[C@H](Cc2ccc(O)cc2)NC(=O)[C@H]([C@@H](C)O)NC(=O)[C@H](CCCCN)NC(=O)[C@@H](Cc2c[nH]c3ccccc23)NC(=O)[C@H](Cc2ccccc2)NC(=O)[C@H](Cc2ccccc2)NC(=O)[C@H](CC(N)=O)NC(=O)[C@H](CCCCN)NC1=O` [LTT-SS28] (HELM PEPTIDE1{S.A.N.S.N.P.A.L.A.P.R.E.R.K.A.G.C.K.N.F.F.[dW].K.T.Y.T.S.C}$PEPTIDE1,PEPTIDE1,17:R3-28:R3$$$V2.0), for which the results for the IC50 on hSST5, at hSST2 and at hSST3 were 0.17 ± 0.03 nM, 0.05 ± 0.01 nM and 0.09 ± 0.01 nM, respectively.
